Data: article PMC4773095

Biological target: NsrR, response regulator from Streptococcus agalactiae COH1 (full length) (Streptococcus agalactiae COH1)
Assay: SEC; Superdex 200 GL 10/300, buffer C (25 mM Tris pH 9.0, 50 mM NaCl, 2 mM PMSF); column calibrated with proteins of known molecular weight

NsrR, response regulator from Streptococcus agalactiae COH1 (full length) (natural protein)
stoichiometry N: 2
